{"source": "patent US20200407673A1", "about": "“DEVICE, KIT AND METHOD FOR THREE-DIMENSIONAL CELL CULTURE” (RIGENERAND S.R.L., priority 2018, published 2020)", "tested_on": "luciferase positive tumor cells", "assay": "efficacy of sTRAIL on luciferase-positive tumor cells grown in the three-dimensional culture device, luciferin light signal", "format": "cell-based", "settings": "cells grown 72 hours in the device, then 24 hours of treatment; luciferin substrate, luminometer", "protocol": "In the culture device 1 the tumor cells “C” which are luciferase-positive are grown for 72 hours and it is possible to monitor the extent of the growth and estimate the number of tumor cells “C” grown inside the culture device 1 by adding the luciferin substrate and detecting the light signal, as shown in the diagram in FIG. 20.\nThe effectiveness of the sTRAIL biological agent, which is added to the culture medium and is loaded inside the culture device 1, is tested on the tumor mass inside the culture device 1 evaluated at 72 hours.\nThe efficacy of the treatment is determined after 24 hours by adding the luciferin substrate which is metabolized by the viable tumor cells “C” by the action of the luciferase.\nSince the cells “C” that are dead or in apoptosis no longer produce the enzyme, they cannot metabolize the substrate and, consequently, they are no longer able to generate a light signal.", "data": [{"molecule": "sTRAIL: soluble TNF-related antitumor biological agent apoptosis-inducing ligand; biological cytotoxic agent (protein, UniProt P50591 39-281, looked up, extracellular domain soluble form) extracellular domain: TNELKQMQDKYSKSGIACFLKEDDSYWDPNDEESMNSPCWQVKWQLRQLVRKMILRTSEETISTVQEKQQNISPLVRERGPQRVAAHITGTRGRSNTLSSPNSKNEKALGRKINSWESSRSGHSFLSNLHLRNGELVIHEKGFYYIYSQTYFRFQEEIKENTKNDKQMVQYIYKYTSYPDPILLMKSARNSCWSKDAEYGLYSIYQGGIFELKENDRIFVSVTNEHLIDMDHEASFFGAFLVG", "values": [{"measurement": "light signal (RLUs, proportional to viable cells) after treatment", "value": "light signal is reduced in intensity"}]}]}
